Patent publication US20240024520A1 (UCB, published 2024)
Numbering of substitutions follows the chain as printed. Several values for one entry are separate records, joined by “and”; a condition that tells them apart may be missing. Equal values may be shown once. Ends that are not written are not given here. * marks the point of attachment. Palmitoyl = CCCCCCCCCCCCCCCC(=O)*

B1: PGT121 Fab-K57 knob domain fusion protein (Fab)
heavy: QMQLQESGPGLVKPSETLSLTCSVSGASISDSYWSWIRRSPGKGLEWIGYVHKSGDTNYSPSLKSRVNLSLDTSKNQVSLSLVAATAADSGKYYCARTLHGRRIYGSENLYFQGSGCPPGYKSGVDCSPGSECKWGCYAVDGRRYGGYGADSGVENLYFQGSEWFTYFYMDVWGNGTQVTVSSASTKGPSVFPLAPSSKSTSGGTAALGCLVKDYFPEPVTVSWNSGALTSGVHTFPAVLQSSGLYSLSSVVTVPSSSLGTQTYICNVNHKPSNTKVDKRVEPKSCDKTLEENLYFQGSGGSHHHHHHHHHH
light: QSVLTQPPDISVAPGETARISCGEKSLGSRAVQWYQHRAGQAPSLIIYNNQDRPSGIPERFSGSPDSPFGTTATLTITSVEAGDEADYYCHIWDSRVPTKWVFGGGTTLTVLGQPKAAPSVTLFPPSSEELQANKATLVCLISDFYPGAVTVAWKADSSPVKAGVETTTPSKQSNNKYAASSYLSLTPEQWKSHRSYSCQVTHEGSTVEKTVAPTECS
B2: PGT121 Fab-K136 knob domain fusion protein (Fab)
heavy: QMQLQESGPGLVKPSETLSLTCSVSGASISDSYWSWIRRSPGKGLEWIGYVHKSGDTNYSPSLKSRVNLSLDTSKNQVSLSLVAATAADSGKYYCARTLHGRRIYGSENLYFQGTCPDNYREVDGCDPYDCCLTTWCTNSYCTRYIENLYFQGSEWFTYFYMDVWGNGTQVTVSSASTKGPSVFPLAPSSKSTSGGTAALGCLVKDYFPEPVTVSWNSGALTSGVHTFPAVLQSSGLYSLSSVVTVPSSSLGTQTYICNVNHKPSNTKVDKRVEPKSCDKTLEENLYFQGSGGSHHHHHHHHHH
light: B1 light
B3: PGT121 Fab-K149 knob domain fusion protein (Fab)
heavy: QMQLQESGPGLVKPSETLSLTCSVSGASISDSYWSWIRRSPGKGLEWIGYVHKSGDTNYSPSLKSRVNLSLDTSKNQVSLSLVAATAADSGKYYCARTLHGRRIYGSENLYFQGSCPDGFSYRSWDDFCCPMVGRCLAPRNGSENLYFQGSEWFTYFYMDVWGNGTQVTVSSASTKGPSVFPLAPSSKSTSGGTAALGCLVKDYFPEPVTVSWNSGALTSGVHTFPAVLQSSGLYSLSSVVTVPSSSLGTQTYICNVNHKPSNTKVDKRVEPKSCDKTLEENLYFQGSGGSHHHHHHHHHH
light: B1 light
B4: PGT121 Fab-K92 knob domain fusion protein (Fab)
heavy: QMQLQESGPGLVKPSETLSLTCSVSGASISDSYWSWIRRSPGKGLEWIGYVHKSGDTNYSPSLKSRVNLSLDTSKNQVSLSLVAATAADSGKYYCARTLHGRRIYGSENLYFQGVTCPEGWSECGVAIYGYECGRWGCGHFLNSGPNISPYVTTGSENLYFQGSEWFTYFYMDVWGNGTQVTVSSASTKGPSVFPLAPSSKSTSGGTAALGCLVKDYFPEPVTVSWNSGALTSGVHTFPAVLQSSGLYSLSSVVTVPSSSLGTQTYICNVNHKPSNTKVDKRVEPKSCDKTLEENLYFQGSGGSHHHHHHHHHH
light: B1 light
B5: K92 knob domain peptide, chemically synthesised, free energy method (Example 4) (peptide)
peptide: TCPEGWSECGVAIYGYECGRWGCGHFLNSGPNISPYVTTGS
modifications: disulfide (positions not given here); also: disulphides formed in glutathione redox buffer, pairing not given here
notes: Disulphides formed in glutathione redox buffer
B6: ultralong CDR-H3 of SEQ ID NO: 497 displayed on M13 phage (other)
chain: TTVHQKTTRQTSCPDGYIAGDSSCYRWRCRGNNCCKYGENRLLNYYDYTCVPYRDTYEWYVD
notes: not shown: poly-histidine, c-myc tag, M13 pIII
B7: ultralong CDR-H3 of SEQ ID NO: 499 displayed on M13 phage (other)
chain: TTVHQQTQKHCPDDDTDRDGCSRPDSRGGSGCGSYGRYGDQGGACCPLTYEFDV
notes: as for B6
B8: ultralong CDR-H3 of SEQ ID NO: 506 displayed on M13 phage (other)
chain: TTVHQQTQERCPDDYTDRGGCSIPYNCGGSRCCAYGRNGGYGGVSCSRTYEFYVN
notes: as for B6
B9: ultralong CDR-H3 of SEQ ID NO: 501 displayed on M13 phage (other)
chain: B8 chain with V44N, S45T, F52L, N55E
notes: as for B6
B10: ultralong CDR-H3 of SEQ ID NO: 505 displayed on M13 phage (other)
chain: B8 chain with N38Y, G40D, V44I
notes: as for B6
B11: ultralong CDR-H3 of SEQ ID NO: 508 displayed on M13 phage (other)
chain: B8 chain with D14N, N26T
notes: as for B6
B12: ultralong CDR-H3 of SEQ ID NO: 504 displayed on M13 phage (other)
chain: B8 chain with N26S, G29D
notes: as for B6
B13: ultralong CDR-H3 of SEQ ID NO: 502 displayed on M13 phage (other)
chain: B8 chain with N26T
notes: as for B6
B14: ultralong CDR-H3 of SEQ ID NO: 507 displayed on M13 phage (other)
chain: B8 chain with D14N, N26S, G29D
notes: as for B6
B15: ultralong CDR-H3 of SEQ ID NO: 500 displayed on M13 phage (other)
chain: B8 chain with V44I
notes: as for B6
B16: ultralong CDR-H3 of SEQ ID NO: 503 displayed on M13 phage (other)
chain: B8 chain with V44I, F52W, N55D
notes: as for B6
B17: K57 ultralong CDR-H3-hC3nb1 (bispecific antibody, not shown: a dimerising Fc or GST)
VHH: TTVHQRTIKSGCPPGYKSGVDCSPGSECKWGCYAVDGRRYGGYGADSGVGSTYTHEFYVDAWGQGSSSSGSSSSGQVQLVETGGGLVQAGGSLRLSCAASGSIFSLNAMGWFRQAPGKEREFVATINRSGGRTYYADSVKGRFTISRDNGKNMVYLQMHSLKPEDTAIYYCAAGTGWSPQTDNEYNYWGQGTQVTVSS
notes: tied to the label 'hC3Nb1 N-Term' on that ground; also called hC3Nb1 N-Term
B18: hC3nb1-K57 loop 2 with C-terminal single-chain Fc tag (bispecific antibody, not shown: a dimerising Fc or GST)
VHH: QVQLVETGGGLVQAGGSLRLSCAASGSIFSLNAMGWFRQAPSGGGSGCPPGYKSGVDCSPGSECKWGCYAVDGRRYGGYGADSGVSGGGSKEREFVATINRSGGRTYYADSVKGRFTISRDNGKNMVYLQMHSLKPEDTAIYYCAAGTGWSPQTDNEYNYWGQGTQVTVSS
notes: also called hC3Nb1 Loop 2
B19: hC3nb1-K57 loop 3 with C-terminal single-chain Fc tag (bispecific antibody, not shown: a dimerising Fc or GST)
VHH: QVQLVETGGGLVQAGGSLRLSCAASGSIFSLNAMGWFRQAPGKEREFVATINRSGGRTYYADSVKGSGGGSGCPPGYKSGVDCSPGSECKWGCYAVDGRRYGGYGADSGVSGGGSRFTISRDNGKNMVYLQMHSLKPEDTAIYYCAAGTGWSPQTDNEYNYWGQGTQVTVSS
notes: also called hC3Nb1 Loop 3

What follows are binders tested against T1, human complement component C5 (human, UniProt P01031 19-673; P01031 678-1676) (assay: not given).
T1 sequence (P01031 19-673 limits assumed, chain 1 of 2): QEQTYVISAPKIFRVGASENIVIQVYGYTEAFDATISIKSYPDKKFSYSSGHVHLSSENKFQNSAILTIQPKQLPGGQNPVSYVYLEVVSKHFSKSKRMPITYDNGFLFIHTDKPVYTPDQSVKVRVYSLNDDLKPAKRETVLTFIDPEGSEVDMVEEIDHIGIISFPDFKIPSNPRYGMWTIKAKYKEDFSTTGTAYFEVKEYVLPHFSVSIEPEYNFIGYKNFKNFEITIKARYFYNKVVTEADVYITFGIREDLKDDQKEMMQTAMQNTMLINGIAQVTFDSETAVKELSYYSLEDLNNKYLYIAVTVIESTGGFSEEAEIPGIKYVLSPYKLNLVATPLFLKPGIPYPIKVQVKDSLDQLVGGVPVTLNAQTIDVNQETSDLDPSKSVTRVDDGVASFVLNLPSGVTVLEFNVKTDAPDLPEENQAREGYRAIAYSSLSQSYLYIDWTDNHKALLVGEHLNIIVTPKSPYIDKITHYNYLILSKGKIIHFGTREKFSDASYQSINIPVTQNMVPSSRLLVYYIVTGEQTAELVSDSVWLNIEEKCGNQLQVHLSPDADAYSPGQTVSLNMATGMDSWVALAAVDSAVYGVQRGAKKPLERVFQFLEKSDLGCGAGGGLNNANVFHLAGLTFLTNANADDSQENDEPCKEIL
T1 sequence (P01031 678-1676 limits assumed, chain 2 of 2): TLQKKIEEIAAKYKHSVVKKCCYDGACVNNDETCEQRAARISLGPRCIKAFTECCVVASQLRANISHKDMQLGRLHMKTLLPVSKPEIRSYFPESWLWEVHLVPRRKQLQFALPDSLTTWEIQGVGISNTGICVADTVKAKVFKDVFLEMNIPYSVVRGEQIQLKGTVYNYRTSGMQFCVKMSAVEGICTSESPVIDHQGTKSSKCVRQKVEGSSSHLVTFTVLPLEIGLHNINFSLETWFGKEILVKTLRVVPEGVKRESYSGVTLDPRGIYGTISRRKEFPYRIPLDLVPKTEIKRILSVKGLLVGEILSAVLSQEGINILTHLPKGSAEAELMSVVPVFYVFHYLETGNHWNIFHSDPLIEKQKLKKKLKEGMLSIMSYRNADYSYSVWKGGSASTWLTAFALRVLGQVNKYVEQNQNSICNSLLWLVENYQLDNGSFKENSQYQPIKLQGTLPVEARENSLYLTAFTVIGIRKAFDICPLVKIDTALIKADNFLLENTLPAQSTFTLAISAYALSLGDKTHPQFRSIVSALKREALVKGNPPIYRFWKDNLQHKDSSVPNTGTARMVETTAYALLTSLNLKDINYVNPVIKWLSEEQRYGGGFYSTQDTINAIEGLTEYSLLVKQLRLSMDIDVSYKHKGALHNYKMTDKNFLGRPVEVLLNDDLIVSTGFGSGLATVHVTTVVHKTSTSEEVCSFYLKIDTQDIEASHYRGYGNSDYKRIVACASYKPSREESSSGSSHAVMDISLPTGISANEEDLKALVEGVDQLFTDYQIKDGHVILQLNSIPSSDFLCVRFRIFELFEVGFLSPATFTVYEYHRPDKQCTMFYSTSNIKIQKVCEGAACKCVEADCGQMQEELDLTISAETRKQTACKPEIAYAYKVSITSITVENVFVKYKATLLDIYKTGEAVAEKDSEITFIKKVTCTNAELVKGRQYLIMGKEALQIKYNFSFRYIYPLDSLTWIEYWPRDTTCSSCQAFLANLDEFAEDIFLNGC
Work on B1 yielded a Kd of 4.1 nM, a koff of 0.000132 s⁻¹ and a kon of 32300 M⁻¹ s⁻¹. In the case of B2, the Kd is reported as less than 0.1 nM, the koff is reported as less than 1e-05 s⁻¹ and the kon is reported as 9520 M⁻¹ s⁻¹. Binder B3 has a Kd of 143 nM, a koff of 0.00162 s⁻¹ and a kon of 11300 M⁻¹ s⁻¹. For B4, the Kd was less than 0.1 nM, the koff was less than 2.93e-05 s⁻¹ and the kon was 28000 M⁻¹ s⁻¹.

Molecular target: T1, human complement component C5
Experiment: not given
Remark: another data set of the same source
B1 was tested, and the Kd was 4.9 nM and 3 nM and 3.4 nM and 3.7 nM. For B2, the Kd was 46.3 nM and 115 nM and 73 nM. With B3 the Kd was 34.9 nM and 57.6 nM and 30.1 nM and 39.3 nM. In the case of B4, the Kd is reported as 14 nM and 10.3 nM and 15.5 nM and 13.1 nM.

Molecular target: T1, human complement component C5
Experiment: not given
Remark: another data set of the same source
For B1, the Kd was 3.3 nM and 2.3 nM and 3.4 nM and 3 nM. In the case of B2, the Kd is reported as 46.3 nM and 23.4 nM and 58.1 nM and 39.8 nM. With B4 the Kd was 19.3 nM and 7.7 nM and 11.3 nM and 11.9 nM.

These binders were tested against T1, human complement component C5 (assay: cell-based or functional assay).
With B5 the “Classical pathway C5b deposition ELISA, average Emax” value was -33.9% and the “Classical pathway C5b deposition ELISA, geomean IC50” value was 6.6 nM.

Molecular target: T1, human complement component C5
Experiment: cell-based or functional assay
Remark: another data set of the same source
In the case of B5, the “Alternative pathway C5b neoepitope ELISA, average Emax” value is reported as 56.8% and the “Alternative pathway C5b neoepitope ELISA, geomean IC50” value is reported as 46.2 nM.

The binders below were run against T2, mouse serum albumin (mouse, UniProt P07724 25-608) (assay: monoclonal phage ELISA).
T2 construct: also called MSA
B6: binds. B7: binds. B8: binds. B9: binds. B10: binds. B11: binds. B12: binds. B13: binds. B14: binds. B15: binds. B16: binds.

Each binder was assayed against rat serum albumin (rat, UniProt P02770 25-608) (assay: monoclonal phage ELISA).
rat serum albumin, sequence (P02770 25-608 limits assumed): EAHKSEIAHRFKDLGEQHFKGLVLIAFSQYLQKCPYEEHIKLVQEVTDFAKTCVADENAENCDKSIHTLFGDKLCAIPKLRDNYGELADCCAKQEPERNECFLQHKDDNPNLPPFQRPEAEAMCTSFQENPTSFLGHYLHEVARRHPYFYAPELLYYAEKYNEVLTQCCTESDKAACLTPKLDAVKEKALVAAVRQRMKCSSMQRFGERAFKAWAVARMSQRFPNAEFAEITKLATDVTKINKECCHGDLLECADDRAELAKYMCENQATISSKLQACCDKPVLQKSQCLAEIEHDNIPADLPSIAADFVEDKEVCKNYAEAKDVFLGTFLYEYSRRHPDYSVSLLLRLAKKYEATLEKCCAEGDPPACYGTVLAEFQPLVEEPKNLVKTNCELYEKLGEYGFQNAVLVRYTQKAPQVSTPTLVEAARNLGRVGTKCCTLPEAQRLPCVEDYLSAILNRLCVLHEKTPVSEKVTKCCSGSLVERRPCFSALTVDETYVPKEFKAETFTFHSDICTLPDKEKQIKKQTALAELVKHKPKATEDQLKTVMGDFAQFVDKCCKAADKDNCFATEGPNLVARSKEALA
B7: binds. B8: binds. B9: binds. B10: binds. B11: binds. B12: binds. B13: binds. B14: binds. B15: binds. B16: binds.

Each binder was assayed against T1, human complement component C5 (assay: SPR (Biacore), C5, mean of n=3).
In the case of B17, the Kd is reported as 0.192 nM. For B18, the Kd was 0.321 nM. B19 was tested, and the Kd was 0.596 nM.

The binders below were run against T1, human complement component C5 (assay: SPR single-cycle kinetics, human C5, n=1).
B5 was tested, and the Kd was 0.643 nM, the koff was 0.000103 s⁻¹ and the kon was 160000 M⁻¹ s⁻¹.

Each binder was assayed against T1, human complement component C5 (assay: SPR multi-cycle kinetics, human C5 immobilised, mean of n=3).
cyclo(VCPDGFNWGYGCAAGSSRFCTRHDWCCYDERADSHTYGFCTGNRV) (also: disulphides formed by free energy method, pairing not given here, Head-to-tail cyclised K8chemFE) [K8 chemFE cyclic] gave a Kd of 28.5 nM, a koff of 0.00259 s⁻¹ and a kon of 94000 M⁻¹ s⁻¹. In the case of Palmitoyl-GCPPGYKSGVDCSPGSECKWGCYAVDGRRYGGYGADSGVGS (also: disulphides formed by free energy method, pairing not given here) [K57chemFE-Palmitoyl], the Kd is reported as 9.52 nM, the koff is reported as 0.000477 s⁻¹ and the kon is reported as 51100 M⁻¹ s⁻¹.
